Data reported in US20060105378.

Biological target: Tenascin-C (Homo sapiens) (UniProt P24821)
Test: filter
Details: 2'-F all C and U; 2'-OMe all A and G except G1,G9,G28,G31,G34 (TN9 numbering) 2'-OH; (CH2CH2O)6 spacer replaces nt 10-26 (n in SEQ 64); 5' hexylamine; 3'-3' dT cap

Tenascin-C (Homo sapiens), sequence (P24821 23-2201): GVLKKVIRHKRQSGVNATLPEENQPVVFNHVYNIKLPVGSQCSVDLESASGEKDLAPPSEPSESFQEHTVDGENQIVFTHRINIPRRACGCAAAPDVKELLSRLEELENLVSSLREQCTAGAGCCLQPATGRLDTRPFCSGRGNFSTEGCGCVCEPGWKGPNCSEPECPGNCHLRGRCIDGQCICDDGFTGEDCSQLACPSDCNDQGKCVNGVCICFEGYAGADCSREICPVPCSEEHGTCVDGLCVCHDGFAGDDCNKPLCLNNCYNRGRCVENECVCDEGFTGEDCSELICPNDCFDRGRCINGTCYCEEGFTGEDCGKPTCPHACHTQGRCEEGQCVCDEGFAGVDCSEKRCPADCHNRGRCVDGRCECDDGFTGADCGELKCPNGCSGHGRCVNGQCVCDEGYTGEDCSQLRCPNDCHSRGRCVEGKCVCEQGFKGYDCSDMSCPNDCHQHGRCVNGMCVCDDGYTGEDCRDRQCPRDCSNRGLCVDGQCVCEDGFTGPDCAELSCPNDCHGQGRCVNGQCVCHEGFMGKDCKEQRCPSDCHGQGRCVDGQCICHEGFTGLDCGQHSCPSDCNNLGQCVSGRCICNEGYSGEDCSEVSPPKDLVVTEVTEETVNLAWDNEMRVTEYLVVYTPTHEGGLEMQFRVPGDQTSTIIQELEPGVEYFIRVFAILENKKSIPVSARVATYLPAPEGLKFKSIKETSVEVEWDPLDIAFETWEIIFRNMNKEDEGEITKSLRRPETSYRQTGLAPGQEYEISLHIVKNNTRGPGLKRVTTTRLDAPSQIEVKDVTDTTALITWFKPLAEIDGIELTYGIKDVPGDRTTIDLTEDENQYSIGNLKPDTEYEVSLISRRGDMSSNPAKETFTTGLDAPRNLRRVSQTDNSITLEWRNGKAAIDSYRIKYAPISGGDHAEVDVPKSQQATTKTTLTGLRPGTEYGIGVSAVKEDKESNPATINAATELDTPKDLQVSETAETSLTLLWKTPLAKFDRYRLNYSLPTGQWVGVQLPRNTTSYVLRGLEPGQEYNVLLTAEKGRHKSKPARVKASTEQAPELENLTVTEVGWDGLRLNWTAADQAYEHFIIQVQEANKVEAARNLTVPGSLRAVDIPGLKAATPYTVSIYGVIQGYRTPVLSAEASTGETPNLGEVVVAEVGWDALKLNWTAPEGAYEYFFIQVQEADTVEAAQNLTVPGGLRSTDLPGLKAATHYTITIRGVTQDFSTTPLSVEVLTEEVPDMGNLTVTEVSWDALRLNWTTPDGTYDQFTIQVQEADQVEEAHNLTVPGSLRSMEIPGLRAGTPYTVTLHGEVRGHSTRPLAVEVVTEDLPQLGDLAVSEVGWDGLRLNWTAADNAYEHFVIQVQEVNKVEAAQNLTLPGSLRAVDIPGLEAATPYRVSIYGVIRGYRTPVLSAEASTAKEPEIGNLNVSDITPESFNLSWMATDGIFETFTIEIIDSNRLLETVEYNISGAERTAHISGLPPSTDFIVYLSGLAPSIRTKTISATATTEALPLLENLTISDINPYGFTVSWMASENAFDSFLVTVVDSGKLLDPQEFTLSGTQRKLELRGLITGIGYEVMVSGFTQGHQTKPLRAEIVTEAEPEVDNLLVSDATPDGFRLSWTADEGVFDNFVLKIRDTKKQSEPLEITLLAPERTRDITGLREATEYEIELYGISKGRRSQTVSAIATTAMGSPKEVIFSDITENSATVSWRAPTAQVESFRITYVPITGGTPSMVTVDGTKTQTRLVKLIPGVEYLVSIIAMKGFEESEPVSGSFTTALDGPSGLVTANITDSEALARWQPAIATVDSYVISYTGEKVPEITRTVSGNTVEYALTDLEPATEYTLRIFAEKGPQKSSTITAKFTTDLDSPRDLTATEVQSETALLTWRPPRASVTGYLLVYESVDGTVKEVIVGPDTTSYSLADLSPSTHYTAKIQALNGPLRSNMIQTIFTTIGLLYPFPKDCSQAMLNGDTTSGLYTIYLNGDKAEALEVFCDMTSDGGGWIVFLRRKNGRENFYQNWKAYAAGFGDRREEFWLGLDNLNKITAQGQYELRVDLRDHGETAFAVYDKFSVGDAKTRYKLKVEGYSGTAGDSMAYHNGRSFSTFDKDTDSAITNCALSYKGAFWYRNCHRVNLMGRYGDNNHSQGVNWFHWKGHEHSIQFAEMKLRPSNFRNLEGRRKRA

Sequence: GGGAGGACGNCGUCGCCGUAAUGGAUGUUUUGCUCCCUG [TTA1 (GS7641)]
- Kd: 5 nM
